Assay [1] deals with yeast Hsp90, intact (full-length) dimer (yeast) (UniProt P02829). As to the kind of experiment: ITC; 600 μM Tah1 injected into 40 μM yeast Hsp90; 10 mM Tris pH 7.5, 5 mM NaCl; 10°C or 30°C (not told which). (In general: In ITC the heat of successive injections is recorded.)
In assay [2] the target is mouse Pih1 PIH domain 1-200 (His-mPih1 1-200) (mouse) (UniProt Q9CQJ2). As to the kind of experiment: ITC; peptides at 350 μM injected into 30 μM Pih1 (mPIH domain) at 30°C; 20 mM Tris pH 7.5, 5 mM NaCl.
Sequence of mouse Pih1 PIH domain 1-200 (His-mPih1 1-200) (mouse) (Q9CQJ2 1-200): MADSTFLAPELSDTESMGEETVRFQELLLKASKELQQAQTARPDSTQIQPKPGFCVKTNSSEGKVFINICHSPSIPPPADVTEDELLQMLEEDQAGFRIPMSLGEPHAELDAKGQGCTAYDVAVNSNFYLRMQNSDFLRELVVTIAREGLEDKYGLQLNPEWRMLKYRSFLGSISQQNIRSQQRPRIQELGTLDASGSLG
For assay [3], the target named is human Spagh/RPAP3 120-395 (tandem TPR region) (human) (UniProt Q9H6T3). The assay is described as follows: ITC; 500 μM yeast Hsp90 injected into 20 μM Spagh/RPAP3 120-395; 10 mM Tris pH 7.5, 5 mM NaCl; 10°C or 30°C (not told which).
Sequence of human Spagh/RPAP3 120-395 (tandem TPR region) (human) (Q9H6T3 120-395): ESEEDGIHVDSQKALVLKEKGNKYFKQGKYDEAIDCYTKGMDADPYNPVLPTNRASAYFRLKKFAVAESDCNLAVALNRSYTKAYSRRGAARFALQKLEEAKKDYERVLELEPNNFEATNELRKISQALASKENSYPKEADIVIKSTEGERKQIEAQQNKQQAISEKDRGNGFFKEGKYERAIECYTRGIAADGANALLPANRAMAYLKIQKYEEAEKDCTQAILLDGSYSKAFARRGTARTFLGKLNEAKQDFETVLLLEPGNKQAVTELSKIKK
The target in assay [4] is pre-assembled full-length yeast Tah1-Pih1 complex (yeast) (UniProt P25638). As to the kind of experiment: ITC; 301 μM yeast Hsp90 injected into 25 μM yeast Tah1-Pih1 complex; 10 mM Tris pH 7.5, 5 mM NaCl; 10°C or 30°C (not told which).

Among the data in article PMC4058522, “Structural Basis for Phosphorylation-Dependent Recruitment of Tel2 to Hsp90 by Pih1” (Structure(London, England:1993), 2014) are Kd, stoichiometry N (Tah1 per Hsp90 chain) and stoichiometry N values, retold here.

Where only a bound is given, the exact number is not on record here.

In assay [1], “Tah1 (yeast, full-length) (from UniProt P25638 1-111) (natural protein)” showed a Kd of 5.9 µM and a stoichiometry N (Tah1 per Hsp90 chain) of 1.
On to “mouse Tel2 484-496 peptide, bis-phosphorylated pSer 486 and pSer 488”, for which the equilibrium dissociation constant (Kd) in assay [2] came to 37.9 µM.
As for “mouse Tel2 484-496 peptide, bis-phosphorylated pSer 488 and pSer 492 (QGSDpSELDpSDDEF)”, the Kd in assay [2] came to 0.17 µM.
As for mouse Tel2 484-496 peptide, pSer 486, the equilibrium dissociation constant (Kd) in assay [2] is more than 100 µM.
mouse Tel2 484-496 peptide, pSer 488: the Kd in assay [2] stood at 15.3 µM.
With mouse Tel2 484-496 peptide, pSer 492, in assay [2], the Kd came out at 0.39 µM.
As to “yeast Hsp90, intact (full-length) dimer (from UniProt P02829 1-709) (natural protein)”, the Kd was determined as 6.8 µM in assay [3] and 4 µM in assay [4]. Besides, the stoichiometry N in assay [3] (scale: Hsp90 chains per Spagh/RPAP3) came out at 2.

As a reminder, the Kd is the concentration at which binding is half-saturated. For orientation: stoichiometry N means the number of molecules, sites or subunits per partner or assembly.
